Measurements taken from patent publication US20210292396A1.

How the values were obtained:
Experiment in all cases: cell-based or functional assay
[1] = biological target: HIV Env of isolate 25710-2.43 (HIV)
[2] = biological target: HIV Env of isolate ZM215.8 (HIV)
[3] = biological target: Env of HIV isolate ZM249.1 (clade C) (HIV)
[4] = biological target: HIV Env of isolate 16845-2.22 (HIV)
[5] = biological target: Env of HIV isolate CNE55 (clade AE) (HIV)
[6] = biological target: HIV Env of isolate 001428-2.42 (HIV)
[7] = biological target: Env of HIV isolate T266-60 (clade AG) (HIV)
[8] = biological target: Env of HIV isolate CNE31 (clade C) (HIV)
[9] = biological target: HIV Env of isolate CNE7 (HIV)
[10] = biological target: Env of HIV isolate 6838.v1.c35 (clade C) (HIV)
[11] = biological target: Env of HIV isolate UG024.2 (clade D) (HIV)
[12] = biological target: Env of HIV isolate Q769.d22 (clade A) (HIV)
[13] = biological target: Env of HIV isolate 96ZM651.02 (clade C) (HIV)
[14] = biological target: Env of HIV isolate MN.3 (clade B) (HIV)
[15] = biological target: Env of HIV isolate JRFL.JB (clade B) (HIV)
[16] = biological target: Env of HIV isolate TRO.11 (clade B) (HIV)
[17] = biological target: Env of HIV isolate 191821.E6.1 (clade D) (HIV)
[18] = biological target: HIV Env of isolate CAP210.E8 (HIV)
[19] = biological target: Env of HIV isolate 271-11 (clade AG) (HIV)
[20] = biological target: HIV Env of isolate X1254.c3 (HIV)
[21] = biological target: Env of HIV isolate 25925-2.22 (clade C) (HIV)
[22] = biological target: Env of HIV isolate 269-12 (clade AG) (HIV)
[23] = biological target: HIV Env of isolate ZM135.10a (HIV)
[24] = biological target: Env of HIV isolate 398-F1.F6.20 (clade A) (HIV)
[25] = biological target: HIV Env of isolate CE703010217.B6 (HIV)
[26] = biological target: HIV Env of isolate SO18.18 (HIV)
[27] = biological target: Env of HIV isolate 6540.v4.c1 (clade AC) (HIV)
[28] = biological target: Env of HIV isolate MS208.A1 (clade A) (HIV)
[29] = biological target: HIV Env of isolate 3817.v2.c59 (HIV)
[30] = biological target: Env of HIV isolate QH0692.42 (clade B) (HIV)
[31] = biological target: Env of HIV isolate 0921.v2.c14 (clade C) (HIV)
[32] = biological target: HIV Env of isolate CAP256.206.C9 (HIV)
[33] = biological target: Env of HIV isolate QH0515.01 (clade B) (HIV)
[34] = biological target: Env of HIV isolate Q842.d12 (clade A) (HIV)
[35] = biological target: Env of HIV isolate CAP45.G3 (clade C) (HIV)
[36] = biological target: Env of HIV isolate 620345.c1 (clade AE) (HIV)
[37] = biological target: HIV Env of isolate 3016.v5.c45 (HIV)
[38] = biological target: Env of HIV isolate T251-18 (clade AG) (HIV)
[39] = biological target: Env of HIV isolate RW020.2 (clade A) (HIV)
[40] = biological target: Env of HIV isolate 6785.v5.c14 (clade C) (HIV)
[41] = biological target: Env of HIV isolate BR07.DG (clade B) (HIV)
[42] = biological target: HIV Env of isolate ZM53.12 (HIV)
[43] = biological target: HIV Env of isolate 57128.vrc15 (HIV)
[44] = biological target: HIV Env of isolate CNE20 (HIV)
[45] = biological target: Env of HIV isolate 3873.v1.c24 (clade C) (HIV)
[46] = biological target: HIV Env of isolate BR025.9 (HIV)
[47] = biological target: Env of HIV isolate 0439.v5.c1 (clade A) (HIV)
[48] = biological target: Env of HIV isolate DU123.06 (clade C) (HIV)
[49] = biological target: Env of HIV isolate 3988.25 (clade B) (HIV)
[50] = biological target: Env of HIV isolate 0077.v1.c16 (clade C) (HIV)

B1: ePGT121.18 (ePGT121.18.H1 VH and ePGT121.17.L1 VL) (antibody, V domains shown)
VH: QMQLQESGPGLVKPGETLSLTCSVSGASISSSYWSWLRETPGKGLEWIGYTHHSGDTNYAPSLKSRVHLGLHPSKNQVSLSLTSVTAADTAVYYCARTLHGRRIYGVVAFNEYYTYFYWPTWGKGTQVTVSS
VL: SDISVAPGETVRITCGGESIGSRAVQWYQHRPGQAPRLIIYNNQDRPPGIPERFSGSPDIDFGTTATLTISNVEAGDEATYYCHIWDSRRPTNWELGPGTTLTVL
B1 showed an IC80, pseudovirus neutralization (M1) [1] of 10 ng/mL, an IC80, pseudovirus neutralization (M2) [1] of 13 ng/mL and an IC80, pseudovirus neutralization (M1) [2] of 23 ng/mL. For the same binder, the IC80, pseudovirus neutralization (M2) [2] was 26 ng/mL, the IC50, pseudovirus neutralization [3] was 134 ng/mL and the IC80, pseudovirus neutralization (M1) [4] was 127 ng/mL. For the same binder, the IC80, pseudovirus neutralization (M2) [4] was 105 ng/mL, the IC50, pseudovirus neutralization [5] was > 50000 ng/mL and the IC80, pseudovirus neutralization (M1) [6] was 3 ng/mL. For the same binder, the IC80, pseudovirus neutralization (M2) [6] was 4 ng/mL, the IC50, pseudovirus neutralization [7] was 3 ng/mL and the IC50, pseudovirus neutralization [8] was 15 ng/mL. The IC80, pseudovirus neutralization (M1) [9] was 8 ng/mL, the IC80, pseudovirus neutralization (M2) [9] was 7 ng/mL and the IC50, pseudovirus neutralization [10] was 386 ng/mL. For the same binder, the IC50, pseudovirus neutralization [11] was 2360 ng/mL, the IC50, pseudovirus neutralization [12] was > 50000 ng/mL and the IC50, pseudovirus neutralization [13] was 0.7 ng/mL. The IC50, pseudovirus neutralization [14] was 2 ng/mL, the IC50, pseudovirus neutralization [15] was 6 ng/mL and the IC50, pseudovirus neutralization [16] was 2 ng/mL. The IC50, pseudovirus neutralization [17] was 15 ng/mL, the IC80, pseudovirus neutralization (M1) [18] was 78 ng/mL and the IC80, pseudovirus neutralization (M2) [18] was 106 ng/mL. The IC50, pseudovirus neutralization [19] was > 50000 ng/mL, the IC80, pseudovirus neutralization (M1) [20] was 5 ng/mL and the IC80, pseudovirus neutralization (M2) [20] was 6 ng/mL. It also gave an IC50, pseudovirus neutralization [21] of 3 ng/mL, an IC50, pseudovirus neutralization [22] of 3 ng/mL and an IC80, pseudovirus neutralization (M1) [23] of 140 ng/mL. It also gave an IC80, pseudovirus neutralization (M2) [23] of 188 ng/mL, an IC50, pseudovirus neutralization [24] of 3 ng/mL and an IC80, pseudovirus neutralization (M1) [25] of 8 ng/mL. The IC80, pseudovirus neutralization (M2) [25] was 8 ng/mL, the IC80, pseudovirus neutralization (M1) [26] was 5 ng/mL and the IC80, pseudovirus neutralization (M2) [26] was 7 ng/mL. For the same binder, the IC50, pseudovirus neutralization [27] was > 50000 ng/mL, the IC50, pseudovirus neutralization [28] was > 50000 ng/mL and the IC80, pseudovirus neutralization (M1) [29] was 2580 ng/mL. For the same binder, the IC80, pseudovirus neutralization (M2) [29] was 6790 ng/mL, the IC50, pseudovirus neutralization [30] was 6 ng/mL and the IC50, pseudovirus neutralization [31] was 91 ng/mL. It also gave an IC80, pseudovirus neutralization (M1) [32] of 3 ng/mL, an IC80, pseudovirus neutralization (M2) [32] of 4 ng/mL and an IC50, pseudovirus neutralization [33] of 7 ng/mL. The IC50, pseudovirus neutralization [34] was 2 ng/mL, the IC50, pseudovirus neutralization [35] was 1740 ng/mL and the IC50, pseudovirus neutralization [36] was > 50000 ng/mL. The IC80, pseudovirus neutralization (M1) [37] was > 50000 ng/mL, the IC80, pseudovirus neutralization (M2) [37] was > 50000 ng/mL and the IC50, pseudovirus neutralization [38] was 19 ng/mL. For the same binder, the IC50, pseudovirus neutralization [39] was 2 ng/mL, the IC50, pseudovirus neutralization [40] was 2 ng/mL and the IC50, pseudovirus neutralization [41] was 5 ng/mL. The IC80, pseudovirus neutralization (M1) [42] was 20 ng/mL, the IC80, pseudovirus neutralization (M2) [42] was 32 ng/mL and the IC80, pseudovirus neutralization (M1) [43] was 9 ng/mL. For the same binder, the IC80, pseudovirus neutralization (M2) [43] was 10 ng/mL, the IC80, pseudovirus neutralization (M1) [44] was 3 ng/mL and the IC80, pseudovirus neutralization (M2) [44] was 4 ng/mL. For the same binder, the IC50, pseudovirus neutralization [45] was 3 ng/mL, the IC80, pseudovirus neutralization (M1) [46] was 4 ng/mL and the IC80, pseudovirus neutralization (M2) [46] was 4 ng/mL. The IC50, pseudovirus neutralization [47] was 5670 ng/mL, the IC50, pseudovirus neutralization [48] was 2 ng/mL and the IC50, pseudovirus neutralization [49] was 3 ng/mL. For the same binder, the IC50, pseudovirus neutralization [50] was > 50000 ng/mL.

B2: ePGT121.15.H2.L1 (antibody, V domains shown)
VH: QMQLQESGPGLVKPGETLSLTCSVSGASISSSYWSWLRETPGKGLEWIGYTHHSGDTNYAPSLKSRVHLGLHPSKNQVSLSLTSVTAADTAVYYCARTLHGRRIYGVVAFNEWFTYFYWEVWGKGTQVTVSS
VL: SDISVAPGETVRISCGGESIGSRAVQWYQHRAGQAPKLIIYNNQDRPPGIPERFSGSPDIDFGTTATLTITNVEAGDEATYYCHIWDSRRPTNWVFGGGTTLTVL
With B2 the neutralization (Table 6 value) [29] was 0.00328 and the neutralization (Table 6 value) [44] was 0.000538.
